Reference: patent US20140212432A1 (University of California, published 2014)

T1: MT-SP1 (UniProt Q9Y5Y6 615-855, limits assumed)
T1 sequence (looked up): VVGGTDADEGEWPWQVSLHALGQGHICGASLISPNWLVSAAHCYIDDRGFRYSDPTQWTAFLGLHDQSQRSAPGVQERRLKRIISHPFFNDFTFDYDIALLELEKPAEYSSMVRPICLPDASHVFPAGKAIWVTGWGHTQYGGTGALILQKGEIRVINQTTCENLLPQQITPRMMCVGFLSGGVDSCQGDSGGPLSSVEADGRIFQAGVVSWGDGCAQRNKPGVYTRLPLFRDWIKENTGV

T2: HGFA (UniProt Q04756 373-655, limits assumed)
T2 sequence (looked up): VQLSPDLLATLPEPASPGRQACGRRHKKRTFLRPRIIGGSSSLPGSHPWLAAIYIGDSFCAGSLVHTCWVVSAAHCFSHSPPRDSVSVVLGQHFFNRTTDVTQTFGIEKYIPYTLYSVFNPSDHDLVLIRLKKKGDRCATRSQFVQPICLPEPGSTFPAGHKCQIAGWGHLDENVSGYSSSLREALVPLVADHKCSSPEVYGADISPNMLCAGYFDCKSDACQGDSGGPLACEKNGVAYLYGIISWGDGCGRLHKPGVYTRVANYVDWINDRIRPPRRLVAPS


Columns and labels:
[1] = target: T3, mouse uPA (mouse, UniProt P06869 21-433, limits assumed); experiment: quantitative ELISA, uPA-coated plates
T3 construct: The construct is not described; It was active-site titrated in the IgG ELISA, so it was an active form; also called mouse enzyme
T3 sequence (P06869 21-433 limits assumed): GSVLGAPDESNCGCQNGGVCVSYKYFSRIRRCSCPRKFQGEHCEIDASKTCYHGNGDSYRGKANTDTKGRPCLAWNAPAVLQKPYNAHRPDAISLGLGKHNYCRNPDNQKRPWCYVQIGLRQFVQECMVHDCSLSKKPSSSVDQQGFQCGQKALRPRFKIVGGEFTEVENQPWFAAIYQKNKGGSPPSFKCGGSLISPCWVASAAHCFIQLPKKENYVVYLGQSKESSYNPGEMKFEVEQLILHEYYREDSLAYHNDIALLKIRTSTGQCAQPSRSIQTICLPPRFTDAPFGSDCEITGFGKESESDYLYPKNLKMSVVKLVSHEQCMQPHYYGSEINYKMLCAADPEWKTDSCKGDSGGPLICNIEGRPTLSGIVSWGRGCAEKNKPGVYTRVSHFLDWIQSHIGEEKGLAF
Description: (§1) Serial dilutions of pure U33 were added to uPA coated plates and incubated for 1 hour. The amount of Fab bound to uPA was determined by ELISA. U33 Fab was detected only in wells coated with human active uPA. Panel B depicts inhibition of human uPA by U33. The proteolytic activity of human or mouse uPA was read in absence and presence of 1 μM of U33. The enzyme activity is expressed as percentage of the uPA activity in absence of Fab (100%). […] Serial dilutions of U33-Fab were added to uPAR-uPA coated plates and incubated for 1 hour and the activity of uPA was read. Panel D depicts prevention of uPA binding to PAI-1 coated plates by U33. Serial dilutions of pure U33 (4 μM to 31.2 nM) were pre-incubated overnight with uPA and added to PAI-1 coated plates. The amount of uPA bound to PAI was determined by ELISA. […] Serial dilutions of U33 were added to a uPA-coated plate pre-incubated with and without 1 μM CMK. The amount of U33 Fab bound to uPA was determined by ELISA.
(§2) The affinity and specificity of the U33 Fab was determined using quantitative ELISA as well as inhibition assays with human uPA (active and zymogen) and mouse uPA.

[2] = target: T4, human pro-uPA (zymogen uPA) (human, UniProt P00749 21-431); experiment: quantitative ELISA, uPA-coated plates
T4 construct: mature
Description: as §1, §2

[3] = target: T5, uPA-PAI-1 complex (human, UniProt P00749 21-177; P00749 179-431; P05121 24-402); experiment: binding of U33 Fab to uPA pre-incubated with PAI-1
[4] = target: T6, active human urokinase-type plasminogen activator (uPA) (human, UniProt P00749 21-177; P00749 179-431); experiment: steady-state enzyme inhibition of soluble uPA
[5] = target: T6, active human urokinase-type plasminogen …; experiment: enzyme inhibition of uPA
[6] = target: hepsin (UniProt P05981 45-417, limits assumed); experiment: ELISA, protease-coated plate, anti-human Fc-HRP detection
Chain of hepsin (P05981 45-417 limits assumed): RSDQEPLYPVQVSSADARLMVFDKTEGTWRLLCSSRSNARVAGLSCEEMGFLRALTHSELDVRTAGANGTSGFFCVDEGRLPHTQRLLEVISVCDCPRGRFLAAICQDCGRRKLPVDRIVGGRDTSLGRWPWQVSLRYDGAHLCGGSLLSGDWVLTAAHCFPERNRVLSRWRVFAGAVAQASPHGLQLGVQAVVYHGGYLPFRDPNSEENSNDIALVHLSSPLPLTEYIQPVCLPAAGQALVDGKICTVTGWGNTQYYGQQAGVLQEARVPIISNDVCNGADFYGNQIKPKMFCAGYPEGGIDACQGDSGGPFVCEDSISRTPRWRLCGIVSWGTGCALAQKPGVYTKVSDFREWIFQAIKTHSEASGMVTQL
Description: (§3) ELISA assays were performed to further assess the selectivity of U33 IgG for uPA compared to highly related serine proteases. All proteases were active site-titrated to ensure that identical concentrations of active protease were adsorbed to the ELISA plate. After blocking, increasing concentrations of U33 IgG were incubated for 1 hour at RT. Unbound U33 IgG was removed by washing and bound U33 IgG was detected with an anti-human Fc-HRP secondary. 50 μL at of 2.8 nM active protease in coating buffer were added to each well in a Nunc Maxisorb ELISA plate and incubated 0/N at 4° C. Unbound protease was removed by hand washing wells 3× with wash buffer. Wells were incubated in 200 μL of Block Solution per well for 2 h at RT. Block Solution was removed by hand washing wells 3× with wash buffer. 50 μL of U33 IgG in Block Solution was added for 1 h at RT. The highest U33 IgG concentration was 651 nM, and was decreased in two-fold increments to 5.1 nM. Unbound U33 IgG was removed by hand washing wells 6× with wash buffer. 50 μL of 1:2000 dilution of secondary antibody in Block Solution was added for 1 h at RT. Unbound secondary antibody was removed by hand washing wells 6× with wash buffer. 100 μL of 1-step Ultra TMB-ELISA was added and then quenched with 100 μL of 1 M HCl. Signal was quantified by measuring A₄₅₀ on plate reader. Results for U33 binding to uPA, thrombin, HGFA, hepsin, chymotrypsin and trypsin are shown in FIG. 4, panel A. Results for U33 binding to uPA, MT-SP1 and plasmin are shown in FIG. 4, panel B. Results for U33 binding to uPA and tPA are shown in FIG. 4, panel C. […] Therefore U33 IgG can discriminate between proteases with identical catalytic mechanisms and similar protein folds.

[7] = target: T1, MT-SP1; experiment: as above
Description: as §3

[8] = target: T3, mouse uPA; experiment: as above
Description: as §3

[9] = target: T2, HGFA; experiment: as above
Description: as §3

[10] = target: tPA (UniProt P00750 36-562); experiment: as above
Chain of tPA (P00750 36-562 limits assumed): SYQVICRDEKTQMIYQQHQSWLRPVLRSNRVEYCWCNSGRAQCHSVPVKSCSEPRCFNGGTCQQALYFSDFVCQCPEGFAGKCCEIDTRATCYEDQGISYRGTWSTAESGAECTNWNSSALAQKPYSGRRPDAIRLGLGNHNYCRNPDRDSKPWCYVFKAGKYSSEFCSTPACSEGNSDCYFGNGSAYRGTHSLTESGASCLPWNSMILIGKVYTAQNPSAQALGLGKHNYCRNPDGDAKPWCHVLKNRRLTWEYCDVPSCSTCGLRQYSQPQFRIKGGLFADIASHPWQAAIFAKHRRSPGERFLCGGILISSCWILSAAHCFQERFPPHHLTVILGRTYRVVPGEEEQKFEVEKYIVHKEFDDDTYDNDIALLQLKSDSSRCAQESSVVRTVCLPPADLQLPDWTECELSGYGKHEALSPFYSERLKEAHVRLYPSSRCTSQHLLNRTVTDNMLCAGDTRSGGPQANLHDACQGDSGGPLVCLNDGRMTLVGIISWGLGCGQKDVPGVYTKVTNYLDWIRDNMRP
Description: as §3

[11] = target: plasmin (UniProt P00747 97-810, limits assumed); experiment: as above
Chain of plasmin (P00747 97-810 limits assumed): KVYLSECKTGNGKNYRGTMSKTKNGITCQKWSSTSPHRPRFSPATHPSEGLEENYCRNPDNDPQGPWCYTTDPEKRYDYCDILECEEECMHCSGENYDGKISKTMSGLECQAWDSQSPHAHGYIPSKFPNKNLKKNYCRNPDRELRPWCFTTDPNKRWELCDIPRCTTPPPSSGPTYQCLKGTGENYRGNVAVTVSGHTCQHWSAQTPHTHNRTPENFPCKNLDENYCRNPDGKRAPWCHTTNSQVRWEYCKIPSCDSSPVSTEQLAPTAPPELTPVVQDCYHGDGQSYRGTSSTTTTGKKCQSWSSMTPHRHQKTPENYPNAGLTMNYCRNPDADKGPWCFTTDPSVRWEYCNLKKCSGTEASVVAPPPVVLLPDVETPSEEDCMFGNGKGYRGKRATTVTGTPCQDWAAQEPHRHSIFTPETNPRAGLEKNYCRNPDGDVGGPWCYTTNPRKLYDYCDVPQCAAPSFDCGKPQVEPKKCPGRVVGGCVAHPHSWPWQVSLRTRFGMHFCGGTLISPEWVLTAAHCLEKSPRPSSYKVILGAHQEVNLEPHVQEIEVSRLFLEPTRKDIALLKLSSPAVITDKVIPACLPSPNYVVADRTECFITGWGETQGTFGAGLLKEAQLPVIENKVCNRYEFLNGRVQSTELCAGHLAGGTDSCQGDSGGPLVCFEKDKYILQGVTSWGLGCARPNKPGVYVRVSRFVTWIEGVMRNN
Description: as §3

[12] = target: thrombin (UniProt P00734 328-622); experiment: as above
Description: as §3

[13] = target: T4, human pro-uPA (zymogen uPA); experiment: ELISA, plate coated with pro-uPA
Description: (§4) ELISA assays were performed to further assess the selectivity of U33 IgG for uPA compared to highly related serine proteases. All proteases were active site-titrated to ensure that identical concentrations of active protease were adsorbed to the ELISA plate. After blocking, increasing concentrations of U33 IgG were incubated for 1 hour at RT. Unbound U33 IgG was removed by washing and bound U33 IgG was detected with an anti-human Fc-HRP secondary. 50 μL at of 2.8 nM active protease in coating buffer were added to each well in a Nunc Maxisorb ELISA plate and incubated 0/N at 4° C. Unbound protease was removed by hand washing wells 3× with wash buffer. Wells were incubated in 200 μL of Block Solution per well for 2 h at RT. Block Solution was removed by hand washing wells 3× with wash buffer. 50 μL of U33 IgG in Block Solution was added for 1 h at RT. The highest U33 IgG concentration was 651 nM, and was decreased in two-fold increments to 5.1 nM. Unbound U33 IgG was removed by hand washing wells 6× with wash buffer. 50 μL of 1:2000 dilution of secondary antibody in Block Solution was added for 1 h at RT. Unbound secondary antibody was removed by hand washing wells 6× with wash buffer. 100 μL of 1-step Ultra TMB-ELISA was added and then quenched with 100 μL of 1 M HCl. Signal was quantified by measuring A₄₅₀ on plate reader. […]

[14] = target: T5, uPA-PAI-1 complex; experiment: ELISA, uPA-coated plate pre-treated with PAI-1 (133 nM to 8.3 nM)
Description: as §4

| Binder | binding result [1] | binding result [2] | binding result [3] | Ki [4] | Ki [5] | binding result [6] | binding result [7] | binding result [8] | binding result [9] | binding result [10] | binding result [11] | binding result [12] | binding result [13] | binding result [14] |
| --- | --- | --- | --- | --- | --- | --- | --- | --- | --- | --- | --- | --- | --- | --- |
| U33 Fab (Fab, V domains shown, Human Fab from a naive B cell phage display library; also called clone U33; Fab U33) VH: EVQLVQSGGGLVKPGRSLRLSCTASGFTFGDYAMSWVRQAPGKGLEWVGFIRSKAYGGTTEYAAVKGRFTISRDDSKSIAYLQMNSLKTEDTAVYYCIRGANWNWGQGTLVTVSS VL: EIVLTQSPLSLPVTPGEPASISCRSSQTLMNRNGNNFLDWYLQKPGQSPQLLIYLGSNRAPGVPDRFSGSGSGTDFTLKISRVEAEDVGVYYCMQRIEFPYTFGQGTKLEIKR | no binding | no binding | no binding | 20 nM | – | – | – | – | – | – | – | – | – | – |
| U33 IgG (antibody, V domains shown, U33 Fab converted to full length IgG; It was detected with an anti-human Fc secondary; The internalisation study used the 111In-DOTA labelled form; also called full length IgG; 111In-U33 IgG) VH: EVQLVQSGGGLVKPGRSLRLSCTASGFTFGDYAMSWVRQAPGKGLEWVGFIRSKAYGGTTEYAAVKGRFTISRDDSKSIAYLQMNSLKTEDTAVYYCIRGANWNWGQGTLVTVSS VL: EIVLTQSPLSLPVTPGEPASISCRSSQTLMNRNGNNFLDWYLQKPGQSPQLLIYLGSNRAPGVPDRFSGSGSGTDFTLKISRVEAEDVGVYYCMQRIEFPYTFGQGTKLEIKR | – | – | – | – | 10 nM | no binding (tested: highest U33 IgG concentration 651 nM) | no binding (tested: highest U33 IgG concentration 651 nM) | no binding (tested: highest U33 IgG concentration 651 nM) | no binding (tested: highest U33 IgG concentration 651 nM) | no binding (tested: highest U33 IgG concentration 651 nM) | no binding (tested: highest U33 IgG concentration 651 nM) | no binding (tested: highest U33 IgG concentration 651 nM) | no binding (tested: highest U33 IgG concentration 651 nM) | no binding (tested: highest U33 IgG concentration 651 nM) |
